Assay results published in patent US9408922B2, “Anti-tofacitinib antibodies and uses thereof for drug monitoring” (Pfizer Inc., priority 2012, dated 2016).

Assays:
Type in all cases: binding
[1] = Competitive immunoassay-3 with Metabolite 1 as competitor (Example 7); conditions: for 4-P Fit parameter C, Concentration vs % B/B0: Metabolite 1 as competitor, biotinylated tofacitinib 1 ng/ml; for cross reactivity to metabolite 1 (in words, FIG. 3): competitive immunoassay
Description: (§1) After washing the plates, 200 μl of streptavidin-HRP (50 ng/ml) was added and the plates were then incubated for 0.5-1 hour at room temperature. After washing the plates again, 200 μl of TMB (3,3′,5,5′-Tetramethylbenzidine) substrate was added, then color developed for 30 minutes, and the reaction was stopped by adding 50 μl 2 N sulfuric acid. Absorbance at 450 nm was measured.
For this example, eleven anti-tofacitinib monoclonal antibodies were screened for cross reactivity with metabolite 1 using competitive immunoassay. […] After washing the plates, 200 μl of streptavidin-HRP (50 ng/ml) was added and then incubated for 0.5-1 hour at room temperature. After washing the plates again, 200 μl of TMB substrate was added, then developed for 30 minutes, and stopped by adding 50 μl 2 N sulfuric acid. Absorbance at 450 nm was measured.

[2] = Antigen competition immunoassay, unlabeled tofacitinib vs biotinylated tofacitinib (Example 8)
Description: as §1, with “and” for “and the plates were”, “TMB” for “TMB (3,3′,5,5′-Tetramethylbenzidine)”, “then” for “then color”, “and” for “and the reaction was”, “2N” for “2 N”

[3] = Cross reactivity competitive ELISA with Metabolite 1 (Example 9); conditions: metabolite 200,000 to 200 ng/ml; antibody at EC50 dilution
Description: (§2) Two clones, 6D9.A8 and 12D4.G6, were tested for cross reactivity to metabolites 1 and 2. In this experiment, the metabolites were prepared at concentrations of 200,000 to 200 ng/ml and the antibody clones were prepared at their EC50 dilutions shown in Table 1.

[4] = Cross reactivity competitive ELISA with Metabolite 2 (Example 9); conditions: metabolite 200,000 to 200 ng/ml; antibody at EC50 dilution
Description: as §2

[5] = Antigen ED50 in cross reactivity experiment (Example 9); conditions: antibody at EC50 dilution; biotinylated tofacitinib 1 ng/mL
Description: as §2

[6] = Standard curve with tofacitinib, ELISA (Example 10); conditions: biotinylated tofacitinib 1 ng/ml
From the text: FIG. 4 is a graph depicting optimal dilution ranges of select monoclonal antibodies of the invention, e.g., 6D9.A8 (open circles) and 12D4.G6 (open squares) as determined by ELISA.

[7] = Tofacitinib dose response curves with antibody clones (Example 12); conditions: for Antigen ED50: Table 10; for Tofacitinib ED50: tofacitinib 0.001 to 1000 ng/ml, antibody dilution 1:25,600 (6D9.A5), 1:4,000 (6D9.A8), 1:22,000 (12D4.G6); for 4-P Fit parameter C, Concentration vs % B/B0: tofacitinib standard curve
From the text: Further, the data used to generate the graph shown in FIG. 5 are set forth below in Table 9.

[8] = Cross reactivity to Metabolite 1, competitive immunoassay-3 or direct ELISA (Example 12); conditions: for Metabolite 1 Cross reactivity: Table 10
Description: as §1

[9] = Cross reactivity to Metabolite 2, competitive immunoassay-3 or direct ELISA (Example 12); conditions: for Metabolite 2 Cross reactivity: Table 10
Description: as §1

[10] = unlabeled tofacitinib 1000 to 0.001 ng/ml, antibody at EC50 dilution

B1: 12H4.G2: mouse monoclonal anti-tofacitinib antibody; VH SEQ ID NO:8, VL SEQ ID NO:9 (antibody, listed as Mus musculus, V domains shown)
VH: DVQLQGSGPDLVKPSQSLSLTCTVTGYSITSGYSWNWIRQFPGNTLEWMGFIHYSGSTNYNPSLKSRISITRDTSKNQFFLQLNSVTTEDTATYYCVRGPYGSSFYWGQGTTLTVSS
VL: QAVVTQESALTTSPGETVTLTCRSSTGAVTTSNYATWVQEKPDHLFTGLIGGTNNRAPGVPARFSGSLIGDKAALTLTGAQTEDEAIYFCALWYSNHWVFGGGTKLTVL
4-P Fit parameter C, Concentration vs % B/B0 [1]: 0.383 | cross reactivity to metabolite 1 (in words, FIG. 3) [1]: did not detectably bind metabolite 1

B2: 16F10.E6: mouse monoclonal anti-tofacitinib antibody; VH SEQ ID NO:10, VL SEQ ID NO:11 (antibody, listed as Mus musculus, V domains shown)
VH: DMQLQESGPDLVKPSQSLSLTCTVTGYSITSGYSWNWIRQFPGNTLEWMGYIHYSGNTVYNPSLKSRLSITRDTSKNQFFLQLNSVTTEDTATYYCVRGPYGSSFYWGQGTTLTVSS
VL: DIVMTQSQKFMSTSVGDRVSVTCKASQNVGTNVAWYQQKPGQSPKALIYSASYRYSGVPDRFTGSGSGTDFTLTISNVQSEDLAEYFCQQYYNYPLTFGAGTKLELKR
cross reactivity to metabolite 1 (in words, FIG. 3) [1]: did not detectably bind metabolite 1

B3: 12D4.G6: mouse monoclonal anti-tofacitinib antibody; VH SEQ ID NO:12, VL SEQ ID NO:4 (antibody, listed as Mus musculus, V domains shown)
VH: QVQLKESGPGLVAPSQSLSITCTVSGFSLSIYSVHWVRQPPGKGLEWLGMIWGGGNTDYNSVLKSRLSISKDNSKSQVFLKVNSLQTDDTAMYYCARIYYGIFWGQGTLVTVSA
VL: NIVMTQSPKSMSMSVGERVTLTCKASENVVTYVSWYQQKPEQSPKLLIYGASNRYTGVPDRFTGSGSATDFTLTISSVQAEDLADYHCGQGYSYPYTFGGGTKLEIKR
4-P Fit parameter C, Concentration vs % B/B0 [1]: 2.14 × 10^7 | cross reactivity to metabolite 1 (in words, FIG. 3) [1]: did not detectably bind metabolite 1 | competition by unlabeled tofacitinib for binding to biotinylated tofacitinib (in words) [2]: competition was seen | ED20 [2, 10]: 0.457 µg/mL | ED50 [2, 10]: 0.104 µg/mL | ED80 [2, 10]: 0.024 µg/mL | Metabolite-1 Cross reactivity [3]: 4.17% | Metabolite-2 Cross reactivity [4]: 0.15% | Antigen ED50 [5]: 0.152 µg/mL | 4-P Fit parameter C [6]: 109 | Antigen ED50 [7]: 118 ng/mL | Tofacitinib ED50 [7]: 0.118 µg/mL | 4-P Fit parameter C, Concentration vs % B/B0 [7]: 108 | binding of metabolite 1 (in words) [8]: did not substantially bind | Metabolite 1 Cross reactivity [8]: 4.17% | binding of metabolite 2 (in words) [9]: did not substantially bind | Metabolite 2 Cross reactivity [9]: 0.15%

B4: 5A3.E5: mouse monoclonal anti-tofacitinib antibody; VH SEQ ID NO:1, VL SEQ ID NO:2 (antibody, listed as Mus musculus, V domains shown)
VH: EVKLVESGGGLVQPGGSLRLSCATSGFTFNDYYMTWVRQPPGKALEWLGFIRNKADGYTPYYSPSVKGRFTISRDNSQSILYLQMNTLRTEDSATYYCARPHYYGFPFGYWGQGTLVTVSA
VL: QAVVTQESALTTSPGETVTLTCRSSTGAVTTNNYANWVQEKPDHLFTGLIGGTNSRAPGVPARFSGSLIGDKAALTITGAQTEDEAMYFCALWYSNHWVFGGGTKLTVL
4-P Fit parameter C, Concentration vs % B/B0 [1]: 0.191 | cross reactivity to metabolite 1 (in words, FIG. 3) [1]: did not detectably bind metabolite 1

B5: 10A6.C5: mouse monoclonal anti-tofacitinib antibody; VH SEQ ID NO:3, VL SEQ ID NO:4 (antibody, listed as Mus musculus, V domains shown)
VH: DVQLQESGPDLVKPSQSLSLTCTVTGYSITSGYSWNWIRQFPGNTLEWMGYIHYSGSTNYNPSLKSRISITRDTSKNQFFLQLNSVTTEDTATYYCVRGPYGSSFYWGQGTTLTVSS
VL: NIVMTQSPKSMSMSVGERVTLTCKASENVVTYVSWYQQKPEQSPKLLIYGASNRYTGVPDRFTGSGSATDFTLTISSVQAEDLADYHCGQGYSYPYTFGGGTKLEIKR
4-P Fit parameter C, Concentration vs % B/B0 [1]: 0.389 | cross reactivity to metabolite 1 (in words, FIG. 3) [1]: did not detectably bind metabolite 1

B6: 10F10.H5: mouse monoclonal anti-tofacitinib antibody; VH SEQ ID NO:5, VL SEQ ID NO:6 (antibody, listed as Mus musculus, V domains shown)
VH: DVQLQESGPDLVKPSQSLSLTCTVTGYSITSGYSWNWIRQFPGNTLEWMGYIHYSGTTNYNPSLKSRISITRDTSKNQFFLQLNSVTAEDTATYYCARGPYGSSFYWGQGTTLAVSS
VL: QIVLTQSPAIMSASPGEKVTVTCSASSSVSSMHWFQQKPGTSPKLWIYSTSNLASGVPTRFSGSGSGTSYSLTISRMEAEDVATYYCQQRNNYPYTFGGGTKLEIKR
4-P Fit parameter C, Concentration vs % B/B0 [1]: 0.345 | cross reactivity to metabolite 1 (in words, FIG. 3) [1]: did not detectably bind metabolite 1

B7: 6D9.A5: mouse monoclonal anti-tofacitinib antibody; VH SEQ ID NO:7, VL SEQ ID NO:4; replacement subclone for 6D9.A8 (antibody, listed as Mus musculus, V domains shown)
VH: QVQLKESGPGLVAPSESLTITCTVSGFSLSRYSIHWVRQPPGKGLEWLGMIWGGGSTDYNSVLKSRLTIRKDYSKSQVFLKMNSLQTDDTAMYYCARIYYGIYWGQGTLVTVSA
VL: NIVMTQSPKSMSMSVGERVTLTCKASENVVTYVSWYQQKPEQSPKLLIYGASNRYTGVPDRFTGSGSATDFTLTISSVQAEDLADYHCGQGYSYPYTFGGGTKLEIKR
notes: mouse monoclonal anti-tofacitinib antibody; replacement subclone for 6D9.A8
cross reactivity to metabolite 1 (in words, FIG. 3) [1]: did not detectably bind metabolite 1 | binding of the parent drug, potency compared with antibody 12D4.G6 (in words) [7]: more potent binders of the parent drug | Antigen ED50 [7]: 244 ng/ml ng/mL | Tofacitinib ED50 [7]: 0.244 µg/mL | 4-P Fit parameter C, Concentration vs % B/B0 [7]: 224 | binding of metabolite 1 (in words) [8]: did not substantially bind | Metabolite 1 Cross reactivity [8]: 4.47% | binding of metabolite 2 (in words) [9]: did not substantially bind | Metabolite 2 Cross reactivity [9]: <0.01%
